Measurements as given in publication doi:10.1101/2023.05.30.542953.

Target: Lactobacillus helveticus chlorogenic acid esterase (LhCE), wild type (Lactobacillus helveticus)
Test: crystal structure

Lactobacillus helveticus chlorogenic acid esterase (LhCE), wild type (enzyme)
stoichiometry N: 2
